# Data: patent US20180264108A1 (ENCARE BIOTECH B V, published 2018)
# T1: peptide TYSSPEDGIHELAP
# T1 construct: Alanine-scan peptide on a PEPSCAN card; also called replaced amino acid F
# T1 peptide: TYSSPEDGIHELAP
# T2: peptide TYSSPEDGAHELFP
# T2 construct: Alanine-scan peptide on a PEPSCAN card; also called replaced amino acid I
# T2 peptide: TYSSPEDGAHELFP
# T3: peptide TYSSPEDAIHELFP
# T3 construct: Alanine-scan peptide on a PEPSCAN card; also called replaced amino acid G
# T3 peptide: TYSSPEDAIHELFP
# T4: peptide TYSSPEDGIHEAFP
# T4 construct: Alanine-scan peptide on a PEPSCAN card; also called replaced amino acid L
# T4 peptide: TYSSPEDGIHEAFP
# Legend:
# Experiment in all cases: PEPSCAN ELISA, peptide on card, alanine scan
# peptide TYSSPEDGIHELAP = target: T1, peptide TYSSPEDGIHELAP
# peptide TYSSPEDGAHELFP = target: T2, peptide TYSSPEDGAHELFP
# peptide TYSSPEDAIHELFP = target: T3, peptide TYSSPEDAIHELFP
# peptide TYSSPEDGIHEAFP = target: T4, peptide TYSSPEDGIHEAFP
Binder,Antibody binding (arbitrary optical density units) (peptide TYSSPEDGIHELAP),Antibody binding (arbitrary optical density units) (peptide TYSSPEDGAHELFP),Antibody binding (arbitrary optical density units) (peptide TYSSPEDAIHELFP),Antibody binding (arbitrary optical density units) (peptide TYSSPEDGIHEAFP)
"antibody 17G8.72 (antibody, V domains shown) VH: DVQLQESGPDLVKPSQSLSLTCTVTGYSIASGYSWHWIRQFPGNKLEWMGYIHFSGSANYNPSLKSRISITRDTSKNQFFLQLNSVTTEDTATYYCASEARGYFDYWGQGTTLTVSS VL: DVLMTQTPLSLPVSLGDQASISCRSSQSIVRSNGNTYLTWYLQKPGQSPKLLIYKVSNRFSGVPDRFSGSGSGTDFTLKISRVEAEDLGVYFCFQGSHVPPTFGSGTKLEIKR",106 arbitrary optical density units,66 arbitrary optical density units,89 arbitrary optical density units,
"antibody 27A12.70 (antibody, V domains shown) VH: DVQLQESGPDLVKPSQSLSLTCTVTGYSITSGYSWHWIRQFPGNKLEWMGYIHYSGIANYNPSLKSRISITRDTSKNHFFLQLNSVTTEDTATYYCATEKTGFFDYWGQGTTLTVSS VL: DVVMTQTPLSLPVSLGDQASISCRSSQSLVHSNGNTYLHWYLQKPGQSPKLLIYKVSNRFSGVPDRFSGSGSGTDFTLKISRVEAEDLGVYFCSQSAHVPPTFGGGTKLEIKR",249 arbitrary optical density units,91 arbitrary optical density units,122 arbitrary optical density units,
"antibody 29E7.35 (antibody, V domains shown) VH: AVQLQESGPDLVKPSHSLSLTCTVTGYSITSGYSWHWIRQFPGNKLEWMGYIHYSGSANYNPSLKSRFSITRDTSKNQFFLQLNSVTTEDTATYYCATEKTGFFDYWGQGTTLTVSS VL: DVVMTQTPLSLPVSLGDQASISCRSSQSLVHSNGNTYLHWYLQKPGQSPKLLIYKVSNRFSGVPDRFSGSGSGTDFTLKISRVEAEDLGVYFCSQSAHVPPTFGGGTKLEIKR",124 arbitrary optical density units,74 arbitrary optical density units,81 arbitrary optical density units,194 arbitrary optical density units
